# Data: publication PMC6146688
# How the values were obtained:
# [1] = target: LacI-mCherry-E1A(133–205) (human adenovirus 2) (UniProt P03254); assay: recruitment to a lacO array (colocalisation of a YFP fusion with a LacI-tethered fusion, confocal microscopy); CHO-A03.1 cells with ~10,000 integrated lacO sites, cotransfected with 2 ug LacI-CFP-E1A or LacI-mCherry-E1A vector and 2 ug YFP-MED6, YFP-MED23 or YFP-p300 vector; fixed after 48 h; score = % of scored cells with colocalisation
# [2] = target: LacI-mCherry-E1A(121–223) (human adenovirus 2) (UniProt P03254); assay: as above
# [3] = target: LacI-mCherry-E1A(133–189) (human adenovirus 2) (UniProt P03254); assay: as above
# [4] = target: LacI-mCherry-E1A(140–205) (human adenovirus 2) (UniProt P03254); assay: as above
# [5] = target: LacI-mCherry-E1A(133–178) (human adenovirus 2) (UniProt P03254); assay: as above
# [6] = target: LacI-mCherry-E1A(140–189) (human adenovirus 2) (UniProt P03254)
substance,measurement,setting,value
"YFP-p300, Q09472 1-2414",colocalization score (% of cells),[1],73%
same,colocalization score (% of cells),[2],86%
same,colocalization score (% of cells),[3],86%
same,colocalization score (% of cells),[4],64%
same,colocalization score (% of cells),[5],64%
same,"luciferase reporter with eight lacO sites upstream of the E1B promoter, transient transfection of CHO-K1 cells; activity relative to LacI-mCherry-E1A(121–223)",[6],10%
